Results: patent publication US20110135573A1, “METALLOPROTEINASE 9 AND METALLOPROTEINASE 2 BINDING PROTEINS” (DYAX CORP., priority 2009, published 2011)
Residue numbers refer to the chain shown, from its start.

B1: M0301-D12 (Fab, V domains shown)
VH: EVQLLESGGGLVQPGGSLRLSCAASGFTFSMYDMWWVRQAPGKGLEWVSVIYSSGGYTSYADSVKGRFTISRDNSKNTLYLQMNSLRAEDTAVYYCAKDRAYGDYVGWNGFDYWGQGTLVTVSS
VL: DIQMTQSPATLSLSPGERATLSCRASQSISSFLAWYQQKPGQAPRLLIYDASYRATGIPARFSGSGSGTDFTLTISSLEPEDYAVYYCQQRGNWPITFGQGTRLEIK
B2: M0273-G07 (Fab, V domains shown)
VH: B1 VH with M31H, S53P, Y57P, S59Y
VL: B1 VL
B3: M0273-A11 (Fab, V domains shown)
VH: B1 VH with M31R, Y52S, S53P, Y57A, S59F
VL: B1 VL
B4: M0256-D11 (Fab, V domains shown)
VH: B1 VH with M31H, Y57P, S59F
VL: B1 VL
B5: M0307-F04 (Fab, V domains shown)
VH: B1 VH with M31L, S59G
VL: B1 VL
B6: M0299-A12 (Fab, V domains shown)
VH: B1 VH with M31H, D33P, V50Y, Y52S, Y57G, S59F
VL: B1 VL
B7: M0301-A09 (Fab, V domains shown)
VH: B1 VH with M31Y, S53P, S59A
VL: B1 VL
B8: M0272-H08 (Fab, V domains shown)
VH: B1 VH with M31A, S53P, Y57T, S59F
VL: B1 VL
B9: M0273-C10 (Fab, V domains shown)
VH: B1 VH with M31F, D33P, V50Y, S53P, Y57A, S59F
VL: B1 VL
B10: M0274-G08 (Fab, V domains shown)
VH: B1 VH with M31V, S53P, Y57A, S59Y
VL: B1 VL
B11: M0276-F11 (Fab, V domains shown)
VH: B1 VH with M31W, Y57P, S59F
VL: B1 VL
B12: M0273-B10 (Fab, V domains shown)
VH: B1 VH with M31K, D33A, W35I, V50W, Y52P, S53P
VL: B1 VL
B13: M0275-E12 (Fab, V domains shown)
VH: B1 VH with M31H, Y57F, S59G
VL: B1 VL
B14: M0275-D03 (Fab, V domains shown)
VH: EVQLLESGGGLVQPGGSLRLSCAASGFTFSQYDMWWVRQAPGKGLEWVSVIYPSGTTFYADSVKGRFTISRDNSKNTLYLQMNSLRAEDTAVYYCAKDRAYGDYVGWNGFDYWGQGTLVTVSS
VL: B1 VL
B15: 539A-M0237-D02 hIgG1 (antibody, V domains shown)
VH: B1 VH with M31Q, D33P, V50Y, Y52V, S53P, Y57R, S59Y
VL: B1 VL
B16: X0106-C03 (antibody, V domains shown)
VH: B1 VH with M31V, S53P, Y57A, S59Y
VL: B1 VL with D1E, Q3V, M4L, Y83F
B17: X0106-E04 (antibody, V domains shown)
VH: B14 VH
VL: B1 VL with D1E, Q3V, M4L, Y83F
B18: X0106-B02 (antibody, V domains shown)
VH: B1 VH with M31W, Y57P, S59F
VL: B1 VL with D1E, Q3V, M4L, Y83F
B19: X0106-F05 (antibody, V domains shown)
VH: B1 VH with M31L, S59G
VL: B1 VL with D1E, Q3V, M4L, Y83F

These binders were tested against mouse MMP-2 (R&D Systems #924-MP-010) (mouse) (UniProt P33434) (assay: Ki,app, enzyme inhibition assay (fluorogenic peptide substrate), small-scale sFab).
A Ki of 25 nM was found for B1 in this work. A Ki of 22 nM was found for B2 in this work. A Ki of 32 nM was found for B3 in this work. A Ki of 4.2 nM was found for B4 in this work. A Ki of 2.2 nM was found for B5 in this work. A Ki of 30 nM was found for B6 in this work. A Ki of 21 nM was found for B7 in this work. A Ki of 46 nM was found for B8 in this work. A Ki of 18 nM was found for B9 in this work. A Ki of 2.7 nM was found for B10 in this work. A Ki of 3.7 nM was found for B11 in this work. A Ki of 59 nM was found for B12 in this work. A Ki of 15 nM was found for B13 in this work. A Ki of 5.4 nM was found for B14 in this work.

What follows are binders tested against mouse MMP-2 (R&D Systems #924-MP-010) (mouse) (UniProt P33434) (assay: Ki,app, enzyme inhibition assay (fluorogenic peptide substrate), medium-scale sFab).
A Ki of 25 nM was found for B1 in this work. A Ki of 22 nM was found for B2 in this work. A Ki of 32 nM was found for B3 in this work. A Ki of 4.2 nM was found for B4 in this work. A Ki of 2.2 nM was found for B5 in this work. A Ki of 30 nM was found for B6 in this work. A Ki of 21 nM was found for B7 in this work. A Ki of 46 nM was found for B8 in this work. A Ki of 18 nM was found for B9 in this work. A Ki of 2.7 nM was found for B10 in this work. A Ki of 3.7 nM was found for B11 in this work. A Ki of 59 nM was found for B12 in this work. A Ki of 15 nM was found for B13 in this work. A Ki of 5.4 nM was found for B14 in this work.

The binders below were run against mouse MMP-2 (R&D Systems #924-MP-010) (mouse) (UniProt P33434) (assay: Ki,app, enzyme inhibition assay (fluorogenic peptide substrate), IgG).
A Ki of 76 nM was found for B15 in this work. A Ki of 3.2 nM was found for B16 in this work. A Ki of 3.9 nM was found for B17 in this work. A Ki of 4.2 nM was found for B18 in this work. A Ki of 3 nM was found for B19 in this work.
